Test results reported in paper PMC9738585, “Unveiling the Metal-Dependent Aggregation Properties of the C-terminal Region of Amyloidogenic Intrinsically Disordered Protein Isoforms DPF3b and DPF3a” (International Journal of Molecular Sciences, 2022).

Target: the molecule itself
Test: thioflavin T fluorescence; purified C-TER (~10 µM) incubated in TBS (50 mM Tris-HCl pH 8.0, 150 mM NaCl) at ~20 °C for 96 to 144 h; 10 µM ThT, excitation 440 nm, emission 485 nm; self-assembly into amyloid fibrils; also at ~5 µM with 100 µM Cu2+, Mg2+, Ni2+ or Zn2+

B1: C-terminal region of DPF3a (C-TERa) (domain or fragment, human, UniProt Q92784-2 200-357, looked up)
chain: CDICGKRYKNRPGLSYHYAHTHLASEEGDEAQDQETRSPPNHRNENHRPQKGPDGTVIPNNYCDFCLGGSNMNKKSGRPEELVSCADCGRSAHLGGEGRKEKEAAAAARTTEDLFGSTSESDTSTFHGFDEDDLEEPRSCRGRRSGRGSPTADKKGSC
notes: Double-PHD fingers 3 isoform DPF3a (357 amino acids), human, Uniprot Q92784-2, residues 200-357 (C2H2, truncated PHD-1/2 and disordered C-terminal domain); also called DPF3a C-terminus; source: E. coli BL21 Rosetta (DE3), purified (GSTrap FF, on-column TEV cleavage); not shown: GST, N-terminal, cleaved
Does B1 bind?
Result: binds

B2: C-terminal region of DPF3b (C-TERb) (domain or fragment, human, UniProt Q92784-1 200-378, looked up)
chain: CDICGKRYKNRPGLSYHYAHTHLASEEGDEAQDQETRSPPNHRNENHRPQKGPDGTVIPNNYCDFCLGGSNMNKKSGRPEELVSCADCGRSGHPTCLQFTLNMTEAVKTYKWQCIECKSCILCGTSENDDQLLFCDDCDRGYHMYCLNPPVAEPPEGSWSCHLCWELLKEKASAFGCQA
notes: Double-PHD fingers 3 isoform DPF3b (378 amino acids), human, Uniprot Q92784-1, residues 200-378 (C2H2, PHD-1 and PHD-2 zinc fingers); also called DPF3b C-terminus; source: E. coli BL21 Rosetta (DE3), purified (GSTrap FF, on-column TEV cleavage); not shown: GST, N-terminal, cleaved
Does B2 bind?
Result: binds
